Results taken from patent US20190062438A1 (CSL, published 2019).
Numbering of substitutions follows the chain as printed.

Assays:
Assay in all cases: SPR, Fab over captured mutant
[1] = molecular target: T1, shCD131 F103A (human, UniProt P32927 17-438)
T1 construct: C-terminal 6xHis
T1 sequence: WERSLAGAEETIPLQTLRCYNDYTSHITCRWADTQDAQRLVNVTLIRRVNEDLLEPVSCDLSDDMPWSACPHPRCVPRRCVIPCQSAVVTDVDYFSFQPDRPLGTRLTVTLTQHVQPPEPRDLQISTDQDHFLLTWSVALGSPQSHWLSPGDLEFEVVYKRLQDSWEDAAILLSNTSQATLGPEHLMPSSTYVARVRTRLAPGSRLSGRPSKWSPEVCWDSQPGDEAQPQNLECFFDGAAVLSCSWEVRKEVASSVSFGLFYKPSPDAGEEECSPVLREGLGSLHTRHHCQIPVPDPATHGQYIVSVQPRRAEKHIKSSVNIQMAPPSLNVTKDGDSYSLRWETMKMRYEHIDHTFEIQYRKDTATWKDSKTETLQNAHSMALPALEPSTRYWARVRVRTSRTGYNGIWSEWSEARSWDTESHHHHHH
Description: (§1) As shβc is a dimer, kinetics assays were performed with shβc captured on the sensor surface, and purified Fab injected as the analyte. Avidity effects were avoided by the use of Fab rather than whole IgG.
(§2) shCD131 was captured on spots 1 and 5 of each flow cell for 2 minutes at a concentration of 0.4 μg/ml. […] For some analysis purified Fab was injected over each flow cell for 3 minutes and dissociation was monitored for a further 10 minutes. Regeneration of the surface was performed after each cycle with a 40 second injection of 25 mM glycine, pH 2.0. The analysis was performed with Fabs at several concentrations between 100 and 0.31 nM, with each concentration analyzed twice and in random order. The analysis was performed at a flow rate of 30 μl/min in HBS-EP buffer (10 mM Hepes, 150 mM NaCl, 3 mM EDTA, 0.005% Tween 20, pH 7.4) at 37° C. Responses from spots 2 and 4 of each flow cell, (in which shβc was not captured, but otherwise treated identically), were subtracted from those of spots 1 and 5 respectively to produce reference subtracted data. Reference subtracted responses from a blank injection comprising buffer alone were subtracted from the resultant sensorgrams to produce double referenced data suitable for kinetic analysis. Double-referenced sensorgrams were fitted using non-linear regression to a model describing 1:1 kinetics, including a term for mass transport limitation. The Rₘₐₓ value was fitted locally to account for slight deviations in the level of sCD131 captured, with association rate (kₐ), dissociation rate (kd) and equilibrium dissociation constant (KD) fitted globally.
(§3) Mapping of the shCD131 epitope was performed by measurement of the affinity of Fabs for various alanine point mutants of shCD131 essentially as described above, with the following exceptions. Each shCD131 mutant was captured for 120 seconds at concentrations between 1 and 5 μg/ml. For kinetic analysis, purified recombinant Fabs were injected for 2 minutes, and dissociation was monitored for a further 2 minutes. […] Fab concentrations ranged from 16 μM to 3.9 nM in two-fold dilutions.

[2] = molecular target: T2, shCD131 I338A (human, UniProt P32927 17-438)
T2 construct: C-terminal 6xHis; also called 1338A
T2 sequence: T1 sequence with A87F, I322A
Description: as §1, §2, §3

[3] = molecular target: T3, shCD131 Y365A (human, UniProt P32927 17-438)
T3 construct: C-terminal 6xHis
T3 sequence: T1 sequence with A87F, Y349A
Description: as §1, §2, §3

Measured: binding result

B1: 9A2 Fab (Fab, V domains shown)
VH: EVQLLESGGGLVQPGGSLRLSCAASGFTFSHYHMLWVRQAPGKGLEWVSSIRSSGGFTYYADSVKGRFTISRDNSKNTLYLQMNSLRAEDTAVYYCARFYDSFFDIWGQGTMVTVSS
VL: DIQMTQSPSSVSASVGDRVTITCRASQGISSWLAWYQQKPGKAPKLLIYAASSLQSGVPSRFSGSGSGTDFTLTISSLQPEDFATYYCQQANSFPITFGQGTRLEIKR
notes: also called recombinant Fab of 9A2
no binding (tested: Fab up to 16 µM): [1] | [2] | [3]
